From paper PMC4728409 come the findings set out here.

The target of test [1] is phosphorylated pS674 peptide of UHRF1 (human (RefSeq NP_037414.3)). Description: SPR; BIAcore; biotinylated peptides on a streptavidin chip (about 250 RU); GST-BRCA1-BRCT as analyte, 39 nM to 2.5 μM (legend: 17 nM to 2.5 μM), 30 μl min^-1; 150 mM NaCl, 0.005% Polysorbate 20, 10 mM HEPES pH 7.4, 1 mM PMSF.
Test [2] concerns the target BRCA1 (UniProt P38398). The test is described as follows: co-immunoprecipitation. Particulars: reference: wild type; sites S674.
The target of test [3] is BRCA1 BRCT domain (UniProt P38398). Description: far-Western, GST-BRCT overlay on His-UHRF1. The following applies: reference: kinase-treated His-UHRF1 WT; sites S674.

Take “GST-BRCT (wild type) domain of BRCA1 (domain or fragment)”: the dissociation constant (Kd) (commonly the equilibrium constant for the complex coming apart) in test [1] was determined as 356 nM.
In the case of UHRF1 (from UniProt Q96T88-2) S674A, the “binding against the reference” value in test [2] is on record as “weaker”.
For “UHRF1 (from UniProt Q96T88-2) kinase-treated His-UHRF1 S674A”, the “binding against the reference” value in test [3] was “lost”.
